From patent US20090112150A1, “CAVITATION ENHANCED TREATMENT THROUGH LOCAL DELIVERY” (IMARX THERAPEUTICS, INC., priority 2004, published 2009)

Assay: Loading of thrombolytic drugs into microbubbles, particle sizing/counting on Accusizer 770
Format: physicochemical
Details: MX115 microbubbles
Protocol: MX115 was activated in the vial. Different concentrations of thrombolytic drugs, Streptokinase (Sigma, Milwaukee, Wis.) and t-PA (Genentech, South San Francisco, Calif.), were added to the vial and incubated with the microbubbles for 5 minutes before analyzing the mixtures using a Model 770 Accusizer (Particle Sizing Systems, Santa Barbara, Calif.). […] As much as 5 mg of the drug could be loaded into the MRX 115 microbubbles.

[1] = protein loading in microbubbles 0.1 mg, 5 minutes incubation
[2] = protein loading in microbubbles 1 mg, 5 minutes incubation
[3] = protein loading in microbubbles 5 mg, 5 minutes incubation
[4] = protein loading in microbubbles 0.010 mg, 5 minutes incubation

Which “Number of particles/mL” value [1] does the source give for Streptokinase here?
The value was 1.1 × 10^9 particles/mL.

And the Number wt mean [1]?
The Number wt mean was 1.79 μ.

What about the Volume wt mean [1] of the same substance?
The Volume wt mean was 13.6 μ.

And the “Number of particles/mL” value [2]?
The value was 1.1 × 10^9 particles/mL.

What about the Number wt mean [2] of the same substance?
Its Number wt mean is 1.87 μ.

What about the Volume wt mean [2] of the same substance?
The Volume wt mean was 17.1 μ.

And the “Number of particles/mL” value [3]?
The value was 0.5 × 10^9 particles/mL.

What about the Number wt mean [3] of the same substance?
Its Number wt mean is 2.44 μ.

What about the Volume wt mean [3] of the same substance?
Its Volume wt mean is 52.9 μ.

What does the source list for Tissue Plasminogen Activator [tPA]?
Number of particles/mL (After 24 hrs): 1.3 × 10^9 particles/mL; Number wt mean (After 24 hrs): 2.20 μ; Volume wt mean (After 24 hrs): 24.4 μ; Number of particles/mL [4]: 1.1 × 10^9 particles/mL; Number wt mean [4]: 2.27 μ; Volume wt mean [4]: 23.5 μ
